Measured values reported in patent publication US20240317834A1, “COMPOSITIONS AND METHODS FOR NEUROLOGICAL DISEASES” (CODA BIOTHERAPEUTICS, INC., priority 2020, published 2024).

Tested on: Lenti-X 293T cells
Test: YFP fluorescence quenching anion reporter plate reader assay of engineered receptors stimulated with acetylcholine or a non-native ligand
Assay type: cell-based
Settings: for percent quench of YFP fluorescence, 10 uM ach: acetylcholine 10 uM; for percent quench of YFP fluorescence, 100 uM ach: acetylcholine 100 uM; for percent quench of YFP fluorescence, 1 mM ach: acetylcholine 1 mM; for percent quench of YFP fluorescence, 3 mM ach: acetylcholine 3 mM
Method in brief: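 YFP quench was followed for about 1 min 43 s after ligand delivered in iodide-based ECS, pH 7.2. Values are end-of-read fluorescence (last 10 s) divided by the pre-ligand baseline (15 s). Cells were LX293T, transfected with receptor DNA a day before the assay.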

B1: CODA405: engineered chimeric LGIC receptor, Y210V in SEQ ID NO: 33 (protein)
chain: MRCSPGGVWLALAASLLHVSLQGEFQRKLYKELVKNYNPLERPVANDSQPLTVYFSLSLLQIMDVDEKNQVLTTNIWLQMSWTDHYLQWNVSEYPGVKTVRFPDGQIWKPDILLYNSADERFDATFHTNVLVNSSGHCQYLPPGIFKSSCPMDLKNFPMDVQTCKLKFGSWSYGGWSLDLQMQEADISGYIPNGEWDLVGIPGKRSERFVECCKEPYPDVTFTVTMRRRMGYYLIQMYIPSLLIVILSWISFWINMDAAPARVGLGITTVLTMTTQSSGSRASLPKVSYVKAIDIWMAVCLLFVFSALLEYAAVNFVSRQHKELLRFRRKRRHHKSPMLNLFQEDEAGEGRFNFSAYGMGPACLQAKDGISVKGANNSNTTNPPPAPSKSPEEMRKLFIQRAKKIDKISRIGFPMAFLIFNMFYWIIYKIVRREDVHNQ
modifications: synthetic sequence of chimeric LGIC
YFP fluorescence quenching using CNL001 (1 nM CNL001, first column): −16.246%
YFP fluorescence quenching using CNL001 (1 nM CNL001, second column): −4.217%
YFP fluorescence quenching using TC-5619/Bradanicline (3 nM brd): 9.92%
YFP fluorescence quenching using Varenicline (3 nM var, first column): 7.317
YFP fluorescence quenching using Varenicline (3 nM var, second column): 7.643
YFP fluorescence quenching using CNL001 (10 nM CNL001, first column): −6.142%
YFP fluorescence quenching using CNL001 (10 nM CNL001, second column): −10.003%
YFP fluorescence quenching using TC-5619/Bradanicline (30 nM brd): 4.37%
YFP fluorescence quenching using Facinicline (30 nM fac): −26.25
YFP fluorescence quenching using Varenicline (30 nM var, first column): 9.457
YFP fluorescence quenching using Varenicline (30 nM var, second column): 9.134
YFP fluorescence quenching using CNL001 (50 nM CNL001, first column): −11.054%
YFP fluorescence quenching using CNL001 (50 nM CNL001, second column): −10.06%
YFP fluorescence quenching using ABT-126 (50 nM abt): −2.9%
YFP fluorescence quenching using CNL001 (100 nM CNL001, first column): −3.832%
YFP fluorescence quenching using CNL001 (100 nM CNL001, second column): −3.784%
YFP fluorescence quenching using CNL002 (100 nM CNL002): −14.3%
YFP fluorescence quenching using ABT-126 (100 nM abt): −2.06%
YFP fluorescence quenching using AZD-0328 (100 nM azd0328): −8.13%
YFP fluorescence quenching using ABT-126 (300 nM abt): −0.19%
YFP fluorescence quenching using AZD-0328 (300 nM azd0328): −3.35%
YFP fluorescence quenching using TC-5619/Bradanicline (300 nM brd): 59%
YFP fluorescence quenching using Facinicline (300 nM fac): −23.52
YFP fluorescence quenching using Varenicline (300 nM var, first column): 15.503
YFP fluorescence quenching using Varenicline (300 nM var, second column): 11.954
YFP fluorescence quenching using Varenicline (500 nM var, first column): 13.427
YFP fluorescence quenching using Varenicline (500 nM var, second column): 10.784
YFP fluorescence quenching using CNL001 (1 uM CNL001, first column): 1.129%
YFP fluorescence quenching using CNL001 (1 uM CNL001, second column): 7.1%
YFP fluorescence quenching using CNL002 (1 uM CNL002): −7.56%
YFP fluorescence quenching using ABT-126 (1 uM abt): −3.64%
YFP fluorescence quenching using TC-6987 (1 uM tc6987): −22.63
YFP fluorescence quenching using Varenicline (1 uM var, first column): 9.032
YFP fluorescence quenching using Varenicline (1 uM var, second column): 11.591
YFP fluorescence quenching using TC-6987 (10 uM tc6987): −23.03
YFP fluorescence quenching using CNL002 (30 uM CNL002): −2.02%
YFP fluorescence quenching using AZD-0328 (30 uM azd0328): −2.86%
YFP fluorescence quenching using Facinicline (30 uM fac): 0.83
YFP fluorescence quenching using TC-6987 (500 uM tc6987): −40.88
percent quench of YFP fluorescence, 10 uM ach: −6.31%
percent quench of YFP fluorescence, 100 uM ach: −14.48%
percent quench of YFP fluorescence, 1 mM ach: −2.82%
percent quench of YFP fluorescence, 3 mM ach: 1.06%

B2: CODA407: engineered chimeric LGIC receptor, Y210F in SEQ ID NO: 33 (protein)
chain: MRCSPGGVWLALAASLLHVSLQGEFQRKLYKELVKNYNPLERPVANDSQPLTVYFSLSLLQIMDVDEKNQVLTTNIWLQMSWTDHYLQWNVSEYPGVKTVRFPDGQIWKPDILLYNSADERFDATFHTNVLVNSSGHCQYLPPGIFKSSCPMDLKNFPMDVQTCKLKFGSWSYGGWSLDLQMQEADISGYIPNGEWDLVGIPGKRSERFFECCKEPYPDVTFTVTMRRRMGYYLIQMYIPSLLIVILSWISFWINMDAAPARVGLGITTVLTMTTQSSGSRASLPKVSYVKAIDIWMAVCLLFVFSALLEYAAVNFVSRQHKELLRFRRKRRHHKSPMLNLFQEDEAGEGRFNFSAYGMGPACLQAKDGISVKGANNSNTTNPPPAPSKSPEEMRKLFIQRAKKIDKISRIGFPMAFLIFNMFYWIIYKIVRREDVHNQ
modifications: synthetic sequence of chimeric LGIC
YFP fluorescence quenching using CNL001 (1 nM CNL001, first column): −10.845%
YFP fluorescence quenching using CNL001 (1 nM CNL001, second column): −2.629%
YFP fluorescence quenching using TC-5619/Bradanicline (3 nM brd): −0.53%
YFP fluorescence quenching using Varenicline (3 nM var, first column): 2.441
YFP fluorescence quenching using Varenicline (3 nM var, second column): 7.326
YFP fluorescence quenching using CNL001 (10 nM CNL001, first column): 4.66%
YFP fluorescence quenching using CNL001 (10 nM CNL001, second column): 12.246%
YFP fluorescence quenching using TC-5619/Bradanicline (30 nM brd): 8.71%
YFP fluorescence quenching using Facinicline (30 nM fac): −21.94
YFP fluorescence quenching using Varenicline (30 nM var, first column): 1.275
YFP fluorescence quenching using Varenicline (30 nM var, second column): 12.96
YFP fluorescence quenching using CNL001 (50 nM CNL001, first column): 29.307%
YFP fluorescence quenching using CNL001 (50 nM CNL001, second column): 41.78%
YFP fluorescence quenching using ABT-126 (50 nM abt): −13.07%
YFP fluorescence quenching using CNL001 (100 nM CNL001, first column): 50.654%
YFP fluorescence quenching using CNL001 (100 nM CNL001, second column): 62.054%
YFP fluorescence quenching using CNL002 (100 nM CNL002): −12.47%
YFP fluorescence quenching using ABT-126 (100 nM abt): 0.1%
YFP fluorescence quenching using AZD-0328 (100 nM azd0328): 0.85%
YFP fluorescence quenching using ABT-126 (300 nM abt): 5.97%
YFP fluorescence quenching using AZD-0328 (300 nM azd0328): 1.25%
YFP fluorescence quenching using TC-5619/Bradanicline (300 nM brd): 76.26%
YFP fluorescence quenching using Facinicline (300 nM fac): −22.46
YFP fluorescence quenching using Varenicline (300 nM var, first column): 13.119
YFP fluorescence quenching using Varenicline (300 nM var, second column): 2.355
YFP fluorescence quenching using Varenicline (500 nM var, first column): 11.539
YFP fluorescence quenching using Varenicline (500 nM var, second column): 6.571
YFP fluorescence quenching using CNL001 (1 uM CNL001, first column): 81.742%
YFP fluorescence quenching using CNL001 (1 uM CNL001, second column): 81.304%
YFP fluorescence quenching using CNL002 (1 uM CNL002): −3.93%
YFP fluorescence quenching using ABT-126 (1 uM abt): 50.23%
YFP fluorescence quenching using TC-6987 (1 uM tc6987): −15.22
YFP fluorescence quenching using Varenicline (1 uM var, first column): 8.397
YFP fluorescence quenching using Varenicline (1 uM var, second column): 7.309
YFP fluorescence quenching using TC-6987 (10 uM tc6987): −19.89
YFP fluorescence quenching using CNL002 (30 uM CNL002): 80.97%
YFP fluorescence quenching using AZD-0328 (30 uM azd0328): 82.08%
YFP fluorescence quenching using Facinicline (30 uM fac): 82.63
YFP fluorescence quenching using TC-6987 (500 uM tc6987): −33.32
percent quench of YFP fluorescence, 10 uM ach: −3.75%
percent quench of YFP fluorescence, 100 uM ach: −1.6%
percent quench of YFP fluorescence, 1 mM ach: 71.65%
percent quench of YFP fluorescence, 3 mM ach: 79.09%
